According to patent US20050028229A1 (published 2005):

Legend:
[1] = molecular target: T1, purified human α-hemoglobin (human, UniProt P69905 2-142, heme-bound; carboxy (CO) form in interaction studies, oxy form in stability studies); assay: method not stated; told as 'discussed previously'
T1 construct: Holo-protein with heme; also called CO-α-hemoglobin; carboxy (CO)-α-hemoglobin

[2] = molecular target: T1, purified human α-hemoglobin; assay: gel filtration at various concentrations of AHSP and α-hemoglobin (data not shown)
[3] = molecular target: T2, purified human β-hemoglobin (human, UniProt P68871 2-147, heme-bound; carboxy (CO) form in interaction studies, oxy form in stability studies); assay: gel-filtration chromatography of equimolar mixtures
T2 construct: also called CO-β-hemoglobin; oxy-β-hemoglobin
T2 sequence (P68871 2-147 limits assumed): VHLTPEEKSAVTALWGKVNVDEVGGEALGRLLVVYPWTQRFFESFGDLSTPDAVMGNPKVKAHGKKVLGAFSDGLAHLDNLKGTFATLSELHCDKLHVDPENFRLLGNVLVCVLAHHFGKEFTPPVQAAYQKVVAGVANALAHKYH
Source text: Duplicate strips were stained with benzidine to identify heme-containing proteins, and/or with Ponceau S to stain all proteins.

T1 sequence (P69905 2-142 limits assumed): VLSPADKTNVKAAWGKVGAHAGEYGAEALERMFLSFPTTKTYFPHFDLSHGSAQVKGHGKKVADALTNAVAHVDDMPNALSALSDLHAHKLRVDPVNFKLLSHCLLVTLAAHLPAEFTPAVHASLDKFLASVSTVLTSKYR

Kd [1]: ~100 nM | Kd [2]: ≤ 500 nM | binding result [3]: no binding
B1: recombinant human AHSP (Alpha Hemoglobin Stabilizing Protein) (other, UniProt Q9NZD4 1-102, looked up)
chain: MALLKANKDLISAGLKEFSVLLNQQVFNDPLVSEEDMVTVVEDWMNFYINYYRQQVTGEPQERDKALQELRQELNTLANPFLAKYRDFLKSHELPSHPPPSS
notes: species not restated there; also called EDRF; Erythroid Differentiation Related Factor
